Starred links: 1 amine or outer side, 2 acyl side, 3 side chain; linkers in the order of their positions; H or OH if unused. Positions of bridges follow the written chain, without caps; N, C: chain ends. Non-standard residues stand in square brackets, D forms with d. Primed or numbered codes have the meaning given here. PyrS2″ = (S)-3-amino-1-((pent-4-en-1-yloxy)carbonyl)pyrrolidine-3-carboxylic acid (stapling residue), C=CCCCOC(=O)N1CC[C@@](N[*:1])(C(=O)[*:2])C1; B5(4) = 2,2-bis(4-pentenyl)glycine = 2-amino-2-(pent-4-en-1-yl)hept-6-enoic acid (stitching residue), C=CCCCC(CCCC=C)(N[*:1])C(=O)[*:2]; TfeGA = (S)-2-amino-3-((carboxymethyl)(2,2,2-trifluoroethyl)amino)propanoic acid, O=C([C@H](CN(CC(=O)[*:3])CC(F)(F)F)N[*:1])[*:2]; PyrS2 = (S)-3-amino-1-((pent-4-en-1-yloxy)carbonyl)pyrrolidine-3-carboxylic acid, C=CCCCOC(=O)N1CC[C@@](N[*:1])(C(=O)[*:2])C1; B5(3) = 2,2-bis(4-pentenyl)glycine (stitching residue), C=CCCCC(CCCC=C)(N[*:1])C(=O)[*:2]; Phe(3-COOH) = N[C@@H](Cc1cccc(C(=O)O)c1)C(=O)O; Phe(2-Cl) = N[C@@H](Cc1ccccc1Cl)C(=O)O; Bta = N[C@@H](Cc1csc2ccccc12)C(=O)O; αAllylPro = C=CC[C@@]1(C(=O)O)CCCN1; tBuAla = CC(C)(C)C[C@H](N)C(=O)O; 3Thi = N[C@@H](Cc1ccsc1)C(=O)O; S8 = C=CCCCCCC[C@](C)(N)C(=O)O; hSer = N[C@@H](CCO)C(=O)O
T1: beta-catenin in DLD1 TCF/LEF luciferase reporter cells (UniProt P35222 1-781)
T1 sequence (looked up): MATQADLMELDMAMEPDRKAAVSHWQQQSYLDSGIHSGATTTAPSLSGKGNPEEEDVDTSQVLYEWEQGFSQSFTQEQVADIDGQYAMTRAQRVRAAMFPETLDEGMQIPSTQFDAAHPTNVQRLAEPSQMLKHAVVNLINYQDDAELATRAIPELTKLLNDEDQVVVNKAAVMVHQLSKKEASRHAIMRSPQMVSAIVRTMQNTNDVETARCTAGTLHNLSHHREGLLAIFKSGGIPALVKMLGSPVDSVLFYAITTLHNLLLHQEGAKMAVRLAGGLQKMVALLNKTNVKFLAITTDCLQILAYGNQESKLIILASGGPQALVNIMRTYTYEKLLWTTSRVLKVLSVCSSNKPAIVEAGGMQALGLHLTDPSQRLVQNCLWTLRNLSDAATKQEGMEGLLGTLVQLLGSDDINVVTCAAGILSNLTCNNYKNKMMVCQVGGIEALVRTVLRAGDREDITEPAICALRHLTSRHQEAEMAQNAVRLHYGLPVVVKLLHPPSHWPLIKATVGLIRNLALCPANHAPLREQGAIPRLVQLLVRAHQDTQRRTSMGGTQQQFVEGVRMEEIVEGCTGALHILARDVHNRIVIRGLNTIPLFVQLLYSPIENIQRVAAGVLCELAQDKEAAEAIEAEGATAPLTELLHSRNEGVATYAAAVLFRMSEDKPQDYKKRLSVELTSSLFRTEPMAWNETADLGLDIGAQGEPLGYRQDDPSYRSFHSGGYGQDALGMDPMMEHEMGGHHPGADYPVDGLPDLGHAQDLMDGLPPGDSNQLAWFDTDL

T2: B-cat-Halo (UniProt P35222 1-781)
T2 sequence (looked up): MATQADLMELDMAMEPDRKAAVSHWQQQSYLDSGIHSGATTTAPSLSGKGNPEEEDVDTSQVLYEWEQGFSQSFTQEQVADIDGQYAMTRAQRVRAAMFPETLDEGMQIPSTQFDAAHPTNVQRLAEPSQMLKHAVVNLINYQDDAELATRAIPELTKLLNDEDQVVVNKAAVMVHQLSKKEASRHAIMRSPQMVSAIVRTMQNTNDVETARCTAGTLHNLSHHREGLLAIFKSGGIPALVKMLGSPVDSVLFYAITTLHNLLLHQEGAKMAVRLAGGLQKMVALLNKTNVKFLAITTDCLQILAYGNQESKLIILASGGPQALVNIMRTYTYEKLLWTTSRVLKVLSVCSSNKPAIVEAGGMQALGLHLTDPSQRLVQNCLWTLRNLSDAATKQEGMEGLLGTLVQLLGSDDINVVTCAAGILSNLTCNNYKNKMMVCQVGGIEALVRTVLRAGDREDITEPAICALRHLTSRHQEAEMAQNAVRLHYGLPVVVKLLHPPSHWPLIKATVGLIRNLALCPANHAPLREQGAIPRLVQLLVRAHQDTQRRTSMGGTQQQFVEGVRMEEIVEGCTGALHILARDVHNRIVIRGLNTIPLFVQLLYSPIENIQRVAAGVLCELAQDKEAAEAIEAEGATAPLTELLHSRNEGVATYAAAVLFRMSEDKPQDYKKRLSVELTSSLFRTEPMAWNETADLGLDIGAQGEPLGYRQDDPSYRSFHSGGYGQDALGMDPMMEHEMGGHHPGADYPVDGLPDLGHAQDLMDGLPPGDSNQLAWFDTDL

T3: beta-catenin in DLD1 TCF/LEF luciferase reporter cells (UniProt P35222 2-781)
T3 sequence (looked up): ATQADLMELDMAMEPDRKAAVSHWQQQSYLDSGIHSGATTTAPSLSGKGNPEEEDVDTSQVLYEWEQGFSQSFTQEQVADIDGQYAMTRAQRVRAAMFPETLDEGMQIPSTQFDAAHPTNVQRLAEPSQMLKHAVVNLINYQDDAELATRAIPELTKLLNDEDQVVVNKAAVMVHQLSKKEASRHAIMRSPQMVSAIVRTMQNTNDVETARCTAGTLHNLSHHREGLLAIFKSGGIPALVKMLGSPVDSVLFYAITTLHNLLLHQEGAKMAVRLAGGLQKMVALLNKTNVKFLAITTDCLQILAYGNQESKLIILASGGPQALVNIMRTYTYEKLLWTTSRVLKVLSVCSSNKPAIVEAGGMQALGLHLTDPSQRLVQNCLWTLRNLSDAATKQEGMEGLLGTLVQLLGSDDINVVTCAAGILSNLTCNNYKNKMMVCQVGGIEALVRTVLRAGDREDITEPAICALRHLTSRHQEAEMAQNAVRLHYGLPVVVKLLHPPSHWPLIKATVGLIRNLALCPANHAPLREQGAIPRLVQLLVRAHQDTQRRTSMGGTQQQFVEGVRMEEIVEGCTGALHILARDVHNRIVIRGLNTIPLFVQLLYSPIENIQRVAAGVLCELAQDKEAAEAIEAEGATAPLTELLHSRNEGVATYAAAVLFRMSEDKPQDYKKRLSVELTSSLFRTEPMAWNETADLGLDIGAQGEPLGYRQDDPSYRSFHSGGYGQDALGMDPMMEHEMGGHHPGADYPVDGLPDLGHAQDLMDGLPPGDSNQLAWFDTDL

T4: Bcat-Halo (beta-catenin HaloTag construct transfected into HEK293 cells) (UniProt P35222 1-781)
T4 sequence (looked up): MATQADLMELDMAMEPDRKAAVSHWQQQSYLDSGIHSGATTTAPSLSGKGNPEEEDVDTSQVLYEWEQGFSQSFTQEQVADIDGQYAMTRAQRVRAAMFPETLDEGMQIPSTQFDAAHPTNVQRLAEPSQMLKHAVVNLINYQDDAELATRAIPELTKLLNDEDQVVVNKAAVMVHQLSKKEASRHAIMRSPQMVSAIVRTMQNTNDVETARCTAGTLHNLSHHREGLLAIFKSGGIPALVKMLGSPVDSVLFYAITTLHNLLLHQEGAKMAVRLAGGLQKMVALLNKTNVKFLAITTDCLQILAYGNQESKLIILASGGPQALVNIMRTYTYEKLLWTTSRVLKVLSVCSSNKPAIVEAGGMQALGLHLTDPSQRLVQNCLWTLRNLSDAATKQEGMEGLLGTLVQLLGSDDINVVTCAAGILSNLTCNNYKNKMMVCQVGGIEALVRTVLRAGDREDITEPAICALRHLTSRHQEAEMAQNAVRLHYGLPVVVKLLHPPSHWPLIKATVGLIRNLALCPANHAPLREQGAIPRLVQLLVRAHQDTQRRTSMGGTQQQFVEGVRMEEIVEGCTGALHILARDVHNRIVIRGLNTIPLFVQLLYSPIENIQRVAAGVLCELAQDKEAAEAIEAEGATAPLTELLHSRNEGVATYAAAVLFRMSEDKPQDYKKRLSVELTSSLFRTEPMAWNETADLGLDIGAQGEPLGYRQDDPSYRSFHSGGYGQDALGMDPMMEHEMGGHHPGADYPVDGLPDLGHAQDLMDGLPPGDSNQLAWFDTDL

T5: beta-catenin in DLD1 TCF/LEF luciferase reporter cells (UniProt P35222 1-781)
T5 sequence (looked up): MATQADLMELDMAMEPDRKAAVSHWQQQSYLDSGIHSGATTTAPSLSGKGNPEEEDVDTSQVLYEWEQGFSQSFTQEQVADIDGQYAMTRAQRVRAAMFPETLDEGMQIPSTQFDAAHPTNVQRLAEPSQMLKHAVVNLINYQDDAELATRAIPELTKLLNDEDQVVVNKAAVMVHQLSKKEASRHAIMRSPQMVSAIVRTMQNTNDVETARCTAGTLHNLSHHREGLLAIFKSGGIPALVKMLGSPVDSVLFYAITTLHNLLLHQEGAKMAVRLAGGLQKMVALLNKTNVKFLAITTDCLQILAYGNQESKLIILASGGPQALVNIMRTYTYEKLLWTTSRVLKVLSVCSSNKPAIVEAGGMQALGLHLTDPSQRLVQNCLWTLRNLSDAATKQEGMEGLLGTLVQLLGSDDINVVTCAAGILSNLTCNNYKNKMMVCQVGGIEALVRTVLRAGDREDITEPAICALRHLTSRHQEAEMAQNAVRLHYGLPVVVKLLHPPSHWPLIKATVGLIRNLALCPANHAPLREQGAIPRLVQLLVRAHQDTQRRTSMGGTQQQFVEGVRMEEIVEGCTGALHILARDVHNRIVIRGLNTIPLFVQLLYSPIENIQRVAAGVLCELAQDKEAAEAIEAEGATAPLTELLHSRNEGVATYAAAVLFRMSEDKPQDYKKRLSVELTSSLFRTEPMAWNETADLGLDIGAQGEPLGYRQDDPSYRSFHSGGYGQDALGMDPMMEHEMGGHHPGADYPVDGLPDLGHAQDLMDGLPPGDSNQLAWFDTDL


Legend:
Experiment in all cases: cell-based or functional assay
[1] = target: T1, beta-catenin in DLD1 TCF/LEF luciferase …
B-cat-Halo = target: T2, B-cat-Halo
[2] = target: T3, beta-catenin in DLD1 TCF/LEF luciferase …
[3] = target: T4, Bcat-Halo (beta-catenin HaloTag …)
[4] = target: T5, beta-catenin in DLD1 TCF/LEF luciferase …; remark: listed apart in the source

DLD1 reporter assay Abs IC50 [1] [µM] | NanoBRET Abs IC50 [3] [µM] | DLD1 4% Abs IC50 [4] [µM] | Binder | other results
4.4 |  |  | Ac-[αAllylPro]D[tBuAla][B5(3)]D[TfeGA]AAF[hSer][PyrS2″][Phe(2-Cl)][Bta][hSer]-NH2 (staple 1-4, 4-11) [I-993] | 
 |  |  | Ac-[αAllylPro]D[tBuAla][B5(3)]D[(Tfb)GA]AAFL[PyrS2″][3Thi][Bta]Q-NH2 (staple 1-4, 4-11) [I-1629] | NanoBRET Abs IC50 (B-cat-Halo): 4.3 µM; DLD1 4% Abs IC50 [2]: 2.7 µM
 | 3.7 | 1.7 | Ac-[αAllylPro]D[tBuAla][B5(4)]D[TfeGA]AAFL[PyrS2][3Thi][Bta]Q-NH2 (staple 1-4, 4-11) [I-1461] | 
 | 2.3 | 2.7 | Ac-[αAllylPro]D[tBuAla][B5(4)]D[Phe(3-COOH)]AAFL[PyrS2″][3Thi][Bta]Q-NH2 (staple 1-4, 4-11) [I-1462] | 
10.8 |  |  | Ac-[αAllylPro]D[tBuAla][B5(3)]D[TfeGA]AAF[hSer][S8][Phe(2-Cl)][Bta]Q-NH2 (staple 1-4, 4-11) [I-996] | 

Source: patent US20240116985A1 (published 2024)
